Data published in article PMC6733935, “A convenient and efficient total solid-phase synthesis of DOTA-functionalized tumor-targeting peptides for PET imaging of cancer” (EJNMMI Research, 2019).
Square brackets hold non-standard residues; d marks the D form. Peptide text beside a SMILES is read from it. * marks the point of attachment. DOTA = O=C(O)CN1CCN(CC(=O)O)CCN(CC(=O)*)CCN(CC(=O)O)CC1; Cha = N[C@@H](CC1CCCCC1)C(=O)O; Nle = CCCC[C@H](N)C(=O)O; Ahx = NCCCCCC(=O)O

Assays:
[1] = target: T1, BN/GRP receptor-positive MDA-MB-231 human breast cancer cells (Homo sapiens, UniProt P30550); assay: Saturation binding assay on MDA-MB-231 cells; conditions: n = 3-5 experiments
T1 construct: BN/GRP receptor-positive MDA-MB-231, MCF7, T47D human breast cancer, and PC3 human prostate cancer lines; host or cells: MDA-MB-231, MCF7, T47D (human breast cancer), PC3 (human prostate cancer); intact cells
Method: (§1) The cell binding of ^68Ga-radiolabeled peptides into BN/GRP receptor-positive MDA-MB-231, MCF7, T47D human breast cancer, and PC3 human prostate cancer lines (American Type Culture Collection, Rockville, MD, USA) was performed according to the method described previously. In brief, ∼ 300,000 cells (in 300 μL in low-serum media) were incubated with various amounts of radiopeptides, ranging between 0.1 and 25 nM of peptide (prepared from the serial dilutions of HPLC-purified radiopeptides), in duplicate for 60 min at room temperature. The initial concentrations of ^68Ga-labeled peptides were determined according to a well-established HPLC technique with simultaneous detection by UV absorbance. As the amount of BN peptide in the reaction mixture was too small to be detected by UV absorption at 220 nm, the radioactive peptide chromatograms from the HPLC analysis were compared (with UV chromatograms) with those of known concentrations of the corresponding nonradioactive peptides for the mass determination. Incubation was terminated by dilution with cold saline (300 μL) and the cells were pelleted by centrifugation. The cell pellets was then rapidly washed with cold saline to remove any unbound peptide and centrifuged to collect supernatants. Radioactivity in the cell pellet and the washings was measured in a γ-counter. Non-specific binding was determined in the presence of ~ 200-fold molar excess of unlabeled BN peptide. Specific binding is calculated by subtracting the non-specifically bound radioactivity from that of the total binding. The dissociation constant (Kd) was calculated using a plot of cell bound activity versus the concentration of the radioligand using GraphPad Prism software (GraphPad Software Inc., San Diego, CA, USA).

[2] = target: T2, BN/GRP receptor-positive MCF7 human breast cancer cells (Homo sapiens, UniProt P30550); assay: Saturation binding assay on MCF7 cells; conditions: n = 3-5 experiments
T2 construct: BN/GRP receptor-positive MDA-MB-231, MCF7, T47D human breast cancer, and PC3 human prostate cancer lines; host or cells: MDA-MB-231, MCF7, T47D (human breast cancer), PC3 (human prostate cancer); intact cells
Method: as §1

in vivo = assay: in vivo; parameters: species or system Balb/c mice; conditions: Balb/c, mouse, iv
Method: Approval for the animal protocol used in this study was obtained from the Institutional Animal Care and Use Committee. Animal studies were conducted according to the international regulations governing the safe and proper use of laboratory animals. In vivo biodistribution were performed on healthy Balb/c mice (n = 3–5 in each group, body weight 19–22 g) at 1 and 2 h after intravenous injection of the HPLC-purified radiopeptide (100 μL, 15–20 μCi, total peptide dose ~ 20 ng) via the lateral tail vein. The mice were sacrificed by cervical dislocation at specified time points and blood samples were withdrawn with a syringe from the heart. Major organs such as lungs, stomach, spleen, pancreas, intestines, liver, kidneys, etc. were isolated, weighed, and radioactivity in each organs and tissues were measured using a γ-scintillation counter. Uptake of radioactivity in the tissues and organs was expressed as the percent injected dose per gram (% ID/g) of tissue/organ, which was calculated by comparison with standard solutions representing 10% of the injected dose per animal. For the clearance studies, radioactivity in the urine with bladder and feces is expressed as the percent of the injected dose per tissue (% ID). Values are expressed as mean ± SD for a group of 3-5 animals at each time point.

MDA-MB-231 tumors = assay: in vivo; format: in vivo, nude mice; conditions: for Radioactivity in Urine + bladder / Uptake in Blood / Uptake in Intestines (measured without their contents) / Uptake in Kidneys / Uptake in Liver / Uptake in Lungs / Uptake in Muscle / Uptake in Pancreas / Uptake in Spleen / Uptake in Stomach: female, nude, mouse, in vivo; for Uptake in Tumor: nude mice with MDA-MB-231 tumors, mean ± SD, n = 3-5
Method: BN/GRP receptor-positive MDA-MB-231 and PC3 cell lines (American Type Culture Collection, Rockville, USA) were grown as monolayers at 37 °C in a humidified atmosphere containing RPMI-1640 culture media with 10% fetal bovine serum (FBS) in tissue culture flasks. Twenty-four hours prior to conducting the tumor implantation, the media was replaced with RPMI-1640/10% FBS. The cells were grown to 80-90% confluency and harvested by trypsinization. After centrifugation, about 50 million cells were suspended in 1 mL media for implantation into mice. To prepare cells for inoculation, MDA-MB-231 or PC3 cancer cells with media were centrifuged, the media decanted, and the cell pellet was mixed with phosphate-buffered saline (PBS) to reach a concentration of approximately 5 million cells per 100 μL PBS. Human MDA-MB-231 breast cancer xenografts female mouse models were used for in vivo tumor-targeting experiments. For the implantation of tumor xenografts, approximately five million MDA-MB-231 cells in suspension of 100 μL sterile PBS were injected subcutaneously into the left thigh of each mouse. Tumors were allowed to grow for 4-6 weeks by which tumors had reached weights of 200-300 mg. After sufficient growth of tumors, animals were injected with 20-30 μCi of the radiotracers and the animals were sacrificed at specified time points. The uptake of ^68Ga-radiolabeled peptides in the tumors and other major body organs was calculated by γ-counting as described above.

[3] = ~300,000 cells, 0.1-25 nM radiopeptide, 60 min, room temperature, mean ± SD

For `CCCC[C@H](NC(=O)[C@H](Cc1c[nH]cn1)NC(=O)[C@H](CC1CCCCC1)NC(=O)[C@@H](NC(=O)[C@H](C)NC(=O)[C@H](Cc1c[nH]c2ccccc12)NC(=O)[C@H](CCC(N)=O)NC(=O)[C@H](CS)NC(=O)CNC(=O)CNC(=O)CCCCCNC(=O)CN1CCN(CC(=O)O)CCN(CC(=O)O)CCN(CC(=O)O)CC1)C(C)C)C(=O)N[C@@H](CCSC)C(N)=O` [^68Ga-DOTA-Ahx-BN Tris-, metal not drawn] ({DOTA-Ahx}-GGCQWAV[Cha]H[Nle]M-NH2), the “Bmax (apparent number of binding sites per cell)” value ([1]; SD < 15%) was 5.27 × 10^5 sites/cell, the Kd [1, 3] was 11.6 ± 3.05 nM and the “Bmax (apparent number of binding sites per cell)” value ([2]; SD < 15%) was 6.22 × 10^5 sites/cell. For the same compound, the Kd [2, 3] was 9.32 ± 1.5 nM, the “%ID excreted in Feces” value (in vivo; 1 h) was 0.83 ± 0.19 %ID and the “%ID excreted in Urine” value (in vivo; 1 h) was 74.0 ± 8.03 %ID. For the same compound, the “Uptake in Blood” value (in vivo; 1 h) was 0.29 ± 0.05 %ID/g, the “Uptake in Bone” value (in vivo; 1 h) was 0.17 ± 0.03 %ID/g and the “Uptake in Intestines (measured without their contents)” value (in vivo; 1 h) was 0.67 ± 0.12 %ID/g. The “Uptake in Kidneys” value (in vivo; 1 h) was 2.89 ± 0.41 %ID/g, the “Uptake in Liver” value (in vivo; 1 h) was 1.12 ± 0.30 %ID/g and the “Uptake in Lungs” value (in vivo; 1 h) was 0.36 ± 0.10 %ID/g. For the same compound, the “Uptake in Pancreas” value (in vivo; 1 h) was 2.0 ± 0.27 %ID/g, the “Uptake in Spleen” value (in vivo; 1 h) was 0.09 ± 0.01 %ID/g and the “Uptake in Stomach” value (in vivo; 1 h) was 1.71 ± 0.19 %ID/g. For the same compound, the “%ID excreted in Feces” value (in vivo; 2 h) was 0.69 ± 0.10 %ID, the “%ID excreted in Urine” value (in vivo; 2 h) was 69.0 ± 5.15 %ID and the “Uptake in Blood” value (in vivo; 2 h) was 0.17 ± 0.02 %ID/g. For the same compound, the “Uptake in Bone” value (in vivo; 2 h) was 0.09 ± 0.01 %ID/g, the “Uptake in Intestines (measured without their contents)” value (in vivo; 2 h) was 0.43 ± 0.09 %ID/g and the “Uptake in Kidneys” value (in vivo; 2 h) was 1.63 ± 0.24 %ID/g. The “Uptake in Liver” value (in vivo; 2 h) was 0.53 ± 0.09 %ID/g, the “Uptake in Lungs” value (in vivo; 2 h) was 0.22 ± 0.05 %ID/g and the “Uptake in Pancreas” value (in vivo; 2 h) was 1.25 ± 0.13 %ID/g. For the same compound, the “Uptake in Spleen” value (in vivo; 2 h) was 0.06 ± 0.0 %ID/g, the “Uptake in Stomach” value (in vivo; 2 h) was 0.48 ± 0.06 %ID/g and the “Radioactivity in Urine + bladder” value (MDA-MB-231 tumors; 1 h) was 66.0 ± 6.60 % injected dose per tissue. For the same compound, the “Uptake in Blood” value (MDA-MB-231 tumors; 1 h) was 0.70 ± 0.12 % ID/g, the “Uptake in Intestines (measured without their contents)” value (MDA-MB-231 tumors; 1 h) was 0.89 ± 0.12 % ID/g and the “Uptake in Kidneys” value (MDA-MB-231 tumors; 1 h) was 4.85 ± 0.43 % ID/g. For the same compound, the “Uptake in Liver” value (MDA-MB-231 tumors; 1 h) was 2.20 ± 0.33 % ID/g, the “Uptake in Lungs” value (MDA-MB-231 tumors; 1 h) was 1.86 ± 0.14 % ID/g and the “Uptake in Muscle” value (MDA-MB-231 tumors; 1 h) was 0.28 ± 0.04 % ID/g. The “Uptake in Pancreas” value (MDA-MB-231 tumors; 1 h) was 1.30 ± 0.18 % ID/g, the “Uptake in Spleen” value (MDA-MB-231 tumors; 1 h) was 0.33 ± 0.02 % ID/g and the “Uptake in Stomach” value (MDA-MB-231 tumors; 1 h) was 0.87 ± 0.11 % ID/g. The “Radioactivity in Urine + bladder” value (MDA-MB-231 tumors; 2 h) was 68.0 ± 7.55 % injected dose per tissue, the “Uptake in Blood” value (MDA-MB-231 tumors; 2 h) was 0.60 ± 0.09 % ID/g and the “Uptake in Intestines (measured without their contents)” value (MDA-MB-231 tumors; 2 h) was 0.50 ± 0.10 % ID/g. For the same compound, the “Uptake in Kidneys” value (MDA-MB-231 tumors; 2 h) was 3.74 ± 0.24 % ID/g, the “Uptake in Liver” value (MDA-MB-231 tumors; 2 h) was 1.83 ± 0.24 % ID/g and the “Uptake in Lungs” value (MDA-MB-231 tumors; 2 h) was 0.61 ± 0.07 % ID/g. The “Uptake in Muscle” value (MDA-MB-231 tumors; 2 h) was 0.20 ± 0.02 % ID/g, the “Uptake in Pancreas” value (MDA-MB-231 tumors; 2 h) was 0.75 ± 0.11 % ID/g and the “Uptake in Spleen” value (MDA-MB-231 tumors; 2 h) was 0.16 ± 0.01 % ID/g. The “Uptake in Stomach” value (MDA-MB-231 tumors; 2 h) was 0.60 ± 0.07 % ID/g, the “Uptake in Tumor” value (MDA-MB-231 tumors; 1 h p.i.) was 2.09 ± 0.33 % ID/g and the “Uptake in Tumor” value (MDA-MB-231 tumors; 2 h p.i.) was 1.62 ± 0.18 % ID/g.
